B1: Twister Ribozyme (parent)
chain: AACACUGCCAAUGCCGGUCCCAAGCCCGGAUAAAAGUGGAGGGGGCGG

Variants of: B1
Assay: self-cleavage, relative activity (ratio to wild type); higher = more cleavage; co-transcriptional

Row | Variant | self-cleavage
1 | A11G G41C | 0.313
2 | A11G G43A | 0.234
3 | A11G G43C | 0.169
4 | A11G G44C | 0.784
5 | A11G G45C | 0.343
6 | A11G G47A | 0.812
7 | A11G G48A | 0.884
8 | A11G G48C | 1.09
9 | A11G U12C | 1.13
10 | A11G U18A | 0.61
11 | A11G U18C | 0.382
12 | A11G U31A | 0.348
13 | A11G U31C | 0.736
14 | A11G U31G | 1.1
15 | A11G U37C | 0.529
16 | A11G U37G | 0.494
17 | A11U A22C | 1.17
18 | A11U A22G | 0.399
19 | A11U A23C | 0.241
20 | A11U A23U | 0.765
21 | A11U A30C | 0.862
22 | A11U A32G | 0.911
23 | A11U A32U | 1.1
24 | A11U A33C | 0.909

Row | Variant | self-cleavage
25 | A11U A33G | 0.839
26 | A11U A34G | 1.07
27 | A11U A34U | 0.974
28 | A11U A35C | 0.997
29 | A11U A35U | 1.12
30 | A11U A40C | 0.161
31 | A11U A40U | 0.142
32 | A11U C14G | 0.203
33 | A11U C15A | 0.62
34 | A11U C15G | 0.0907
35 | A11U C20A | 0.178
36 | A11U C21A | 0.114
37 | A11U C21G | 0.0514
38 | A11U C25A | 0.139
39 | A11U C25U | 1.03
40 | A11U C26U | 0.69
41 | A11U C27A | 0.66
42 | A11U C27G | 0.104
43 | A11U C27U | 0.894
44 | A11U C46G | 0.978
45 | A11U C46U | 0.914
46 | A11U G13C | 0.592
47 | A11U G16A | 0.804
48 | A11U G16C | 0.532

Row | Variant | self-cleavage
49 | A11U G17A | 0.497
50 | A11U G17C | 0.111
51 | A11U G17U | 0.264
52 | A11U G24A | 0.108
53 | A11U G24U | 0.105
54 | A11U G28A | 1.02
55 | A11U G28U | 0.968
56 | A11U G29C | 1.02
57 | A11U G29U | 1.04
58 | A11U G36C | 0.573
59 | A11U G36U | 0.849
60 | A11U G38C | 1.08
61 | A11U G39C | 0.149
62 | A11U G39U | 0.279
63 | A11U G41A | 0.747
64 | A11U G41C | 0.374
65 | A11U G42A | 0.557
66 | A11U G42C | 0.623
67 | A11U G42U | 0.33
68 | A11U G43C | 0.234
69 | A11U G44A | 0.977
70 | A11U G45A | 1.13
71 | A11U G47A | 0.937
72 | A11U G48A | 0.951

Row | Variant | self-cleavage
73 | A11U G48C | 1.12
74 | A11U G48U | 1.12
75 | A11U U12A | 0.95
76 | A11U U12C | 0.849
77 | A11U U18G | 0.0666
78 | A11U U31A | 0.918
79 | A11U U31G | 0.893
80 | A11U U37A | 1.01
81 | A11U U37C | 0.583
82 | A11U U37G | 0.953
83 | U12A A22C | 1.08
84 | U12A A23C | 0.394
85 | U12A A23G | 0.768
86 | U12A A30G | 1.01
87 | U12A A32C | 1.15
88 | U12A A32G | 1.12
89 | U12A A33U | 1.14
90 | U12A A34C | 0.36
91 | U12A A35U | 1.06
92 | U12A A40C | 0.291
93 | U12A C14A | 0.997
94 | U12A C14G | 0.0875
95 | U12A C15A | 0.901
96 | U12A C15G | 0.17

Row | Variant | self-cleavage
97 | U12A C19A | 0.342
98 | U12A C20A | 0.181
99 | U12A C20G | 0.16
100 | U12A C21G | 0.122
101 | U12A C21U | 0.164
102 | U12A C25G | 0.423
103 | U12A C26A | 0.763
104 | U12A C26U | 0.563
105 | U12A C27A | 0.744
106 | U12A C27U | 0.945
107 | U12A C46U | 0.977
108 | U12A G13A | 0.89
109 | U12A G13C | 0.811
110 | U12A G16C | 0.688
111 | U12A G17C | 0.114
112 | U12A G24C | 0.097
113 | U12A G24U | 0.172
114 | U12A G28C | 1.02
115 | U12A G28U | 1.06
116 | U12A G29A | 1.11
117 | U12A G29U | 1.13
118 | U12A G36C | 0.693
119 | U12A G38U | 1.01
120 | U12A G41U | 0.772

Row | Variant | self-cleavage
121 | U12A G42A | 0.463
122 | U12A G42C | 0.601
123 | U12A G42U | 0.427
124 | U12A G43C | 0.255
125 | U12A G45A | 1.09
126 | U12A G45C | 0.643
127 | U12A G47C | 0.751
128 | U12A U18A | 0.643
129 | U12A U18C | 0.623
130 | U12A U31A | 0.679
131 | U12A U31C | 1.13
132 | U12A U31G | 0.961
133 | U12A U37A | 0.918
134 | U12A U37C | 0.727
135 | U12C A22G | 0.307
136 | U12C A23C | 0.234
137 | U12C A23U | 0.554
138 | U12C A30G | 0.712
139 | U12C A30U | 1.04
140 | U12C A34C | 0.382
141 | U12C A35G | 0.837
142 | U12C A35U | 0.91
143 | U12C A40C | 0.177
144 | U12C A40G | 0.107

Row | Variant | self-cleavage
145 | U12C A40U | 0.144
146 | U12C C14U | 1.06
147 | U12C C15U | 1.09
148 | U12C C19A | 0.314
149 | U12C C19G | 0.428
150 | U12C C20A | 0.128
151 | U12C C20U | 0.695
152 | U12C C21A | 0.124
153 | U12C C25A | 0.122
154 | U12C C25U | 0.736
155 | U12C C26G | 0.179
156 | U12C C27U | 0.951
157 | U12C C46A | 0.903
158 | U12C C46G | 0.705
159 | U12C G16C | 0.482
160 | U12C G17C | 0.0944
161 | U12C G17U | 0.291
162 | U12C G24A | 0.0718
163 | U12C G28U | 0.88
164 | U12C G29C | 0.877
165 | U12C G29U | 0.746
166 | U12C G36A | 0.679
167 | U12C G38U | 0.781
